Entries after “also recorded” stand apart in the source; their conditions may differ.
Legend:
[1] = test system: gamma glutamyl transpeptidase of Helicobacter pylori (HPGGT); experiment: GGT activity assay: inhibition of GGT by acivicin; assay type: biochemical
Experimental: (§1) The assay for GGT activity was adapted from the method of Meister et al.^27 Briefly, reaction buffer consisting of 20 mM glycyl-glycine (Sigma) as acceptor, 2.5 mM L-γ-glutamyl-p-nitroanilide (Calbiochem, Schwalbach, Germany) as donor substrate and 100 mM Tris-HCl (pH 8.0) was prepared. In some experiments pH of assay buffer was varied between 2 and 10. Supernatants of different H. pylori strains, purified recombinant HPGGT or equine kidney GGT (Sigma) were added and the reaction proceeded at 37° C. for 30 min. The release of p-nitroanilide was monitored by spectrophotometry at 405 nm. One unit of activity was defined as the quantity of enzyme that released 1 μmol of p-nitroanilide per min and per mg of protein at 37° C.
This compound acts as an irreversible and competitive inhibitor of GGT. […] Similar results were obtained for recombinant HPGGT (data not shown).

human PBMC = experiment: Cell proliferation assay (3H-thymidine incorporation), stimulated PBMC; assay type: cell-based
Experimental: Isolation of peripheral blood lymphocytes (PBMC) was performed as described previously^3. All cells were incubated at 37° C. with 5% CO2. Jurkat T cells and PBMC were cultured in RPMI 1640 (Invitrogen, Karlsruhe, Germany) with 10% FCS. EL-4 T cells were cultured in DMEM (Invitrogen) supplemented with 10% horse serum (Cambrex, Verviers, Belgium).
Cells (10^5 PBMC, purified primary T cells or 10^4 Jurkat/EL-4 cells/well) were cultured in 96-well flat-bottom plates in complete medium. PBMC were stimulated in triplicate with PMA (20 ng/ml; Sigma) and Ionomycin (100 ng/ml; Sigma) and all cells were grown with or without indicated total protein concentrations of H. pylori supernatants or recombinant proteins. Primary human T cells were stimulated with either PMA/Ionomycin as described above or with anti-CD3/CD28 beads (Invitrogen) at 1 bead per T cell. Cellular proliferation was determined after 48 h by methyl-[^3H]-thymidine (GE Healthcare) incorporation using a Packard Direct Beta Counter Matrix 9600 (Packard Instruments Co, Downer's Grove, Ill.).

Jurkat T cells [2] = experiment: Analysis of apoptosis (Annexin V-FITC/PI, FACS); assay type: cell-based; conditions: 1 μM, 24 h
Experimental: 5×10^5 Jurkat T cells were treated as indicated. After 24 h cells were harvested by centrifugation, washed, resuspended in 500 μl AnnexinV-binding buffer (10 mM HEPES/NaOH, pH7.4, 140 mM NaCl, 2.5 mM CaCl2) and stained for 10 min each with 5 μl recombinant Annexin V-FITC (Caltag, Burlingame, Calif.) and 0.5 μg/ml PI at room temperature in the dark. Apoptotic cells were measured by FACS analysis (see above). Data were analyzed using Cell Quest software.

HPGGT = experiment: Immunization of animals, sera assayed for inhibition of GGT catalytic activity; assay type: in vivo, Helicobacter pylori; conditions: mice, sera taken 6 weeks after immunization
Description: FIG. 9 is a diagram indicating the inhibitory effect of sera from immunized or infected mice on enzymatic activity of HPGGT. Mice were immunized with the indicated formulations or received PBS as control or were infected with live H. pylori. Sera were taken from tail veins 6 weeks after immunization or infection and assayed for inhibitory activity towards GGT catalytic activity.
as §1

[3] = GGT activity assay: catalytic activity of GGT proteins and fractions; assay type: biochemical
Experimental: as §1

IL-2 = IL-2 ELISA of PBMC supernatants; assay type: cell-based, human; conditions: PBMC stimulated with PMA and Ionomycin, 24 h, compared to stimulated control
Experimental: (§2) PBMC (5×10^5 each) were treated for 24 h as depicted. At indicated time points cells were removed by centrifugation and supernatants were analyzed for amounts of IL-2 (eBioscience, San Diego, Calif.) and IFN-γ (Biosource, Solingen, Germany) by ELISA according to the manufacturer's instructions. The lower limits of detection were 4 pg/ml.
(§3) To date so far nothing was known about a role of HPGGT during suppression of the host's immune response. The inhibition of lymphocyte proliferation by HPGGT reported here might result from interference with cytokine secretion of human PBMCs. To test this hypothesis, cells were stimulated with PMA and Ionomycin and incubated with or without H. pylori wild-type and ΔGGT supernatants or recombinant HPGGT at different concentrations for 24 h. […] In addition secretion of IFN-γ was not reduced (FIG. 5B).

IFN-γ = IFN-γ ELISA of PBMC supernatants; assay type: cell-based, human; conditions: PBMC stimulated with PMA and Ionomycin, 24 h
Experimental: as §2, §3

Jurkat T cells [4] = experiment: Immunoblotting of cell cycle regulatory and signaling proteins; assay type: cell-based
Experimental: For immunoblot analysis 10^7 Jurkat T cells or PBMC were used. Prior to the experiment, Jurkat cells were serum starved for 18 h in medium containing 0.2% FCS. Afterwards, cells were released with 10% FCS and treated as depicted. At the indicated time points, the cells were harvested, washed once with ice-cold PBS, resuspended in 1× lysis buffer (Cell Signaling Technology, Danvers, Mass.) containing protease inhibitors (2.5 mM sodium pyrophosphate, 1 mM β-glycerophosphate, 1 mM Na3VO4, 1 μg/ml leupeptin, 1 mM PMSF; Sigma) and sonicated with a micro tip sonifier on ice for 30 sec. Lysates were centrifuged at 10000×g for 10 min at 4° C. and supernatants were used for immunoblotting. Equal amounts of protein (determined by Bradford assay, BioRad) were separated by Tricine-SDS-PAGE and electrotransferred onto nitrocellulose membranes (BioRad). For detection, membranes were probed with primary antibodies anti-p27, anti-Cyclin D3, anti-Cyclin E, anti-c-Myc (Dianova, Hamburg, Germany), anti-Cdk2 (Santa-Cruz Biotechnology, Heidelberg, Germany), anti-phospho-AKT (Ser 473), anti-phospho-c-Raf (Ser 338), anti-phospho-p70S6K (Thr 389; Cell Signaling), anti-phospho-FKHRL1/Foxo3 (Thr 32; Upstate, Lake Placid, N.Y.), anti-Actin (Sigma) and anti-VacA (Austral Biologicals, San Ramon, Calif.). […] For detection of the large subunit of the HPGGT protein a polyclonal rabbit anti-GGT antibody raised against a synthesized peptide IQPDTVTPSSQIKPGM including amino acid residues 356 to 371 of the HP 1118 gene product (Charles River, Kisslegg, Germany) was used.

human PBMCs = experiment: Immunoblotting of cell cycle regulatory proteins in PBMC; assay type: cell-based; conditions: 24 h and 48 h
Experimental: FIG. 6B an SDS PAGE of the proteins obtained from 10^7 PBMC which were incubated with different concentrations of HPWT and HPΔGGTSN or rHPGGT for 24 h and 48 h and subsequently lysed. 35 μg of total protein were separated by SDS-PAGE and analyzed by immunoblotting. Levels of indicated proteins were determined using the corresponding antibodies. Data were reproduced 2 times with similar results. (HP=H. pylori, SN=supernatant, WT=wild-type).
For immunoblot analysis 10^7 Jurkat T cells or PBMC were used. Prior to the experiment, Jurkat cells were serum starved for 18 h in medium containing 0.2% FCS. Afterwards, cells were released with 10% FCS and treated as depicted. At the indicated time points, the cells were harvested, washed once with ice-cold PBS, resuspended in 1× lysis buffer (Cell Signaling Technology, Danvers, Mass.) containing protease inhibitors (2.5 mM sodium pyrophosphate, 1 mM β-glycerophosphate, 1 mM Na3VO4, 1 μg/ml leupeptin, 1 mM PMSF; Sigma) and sonicated with a micro tip sonifier on ice for 30 sec. Lysates were centrifuged at 10000×g for 10 min at 4° C. and supernatants were used for immunoblotting. Equal amounts of protein (determined by Bradford assay, BioRad) were separated by Tricine-SDS-PAGE and electrotransferred onto nitrocellulose membranes (BioRad). […]

[5] = incubation of the HPGGT with acivicin
[6] = preincubation of HPWTSN with acivicin (50 μM) for 2 h at 37° C.

N[C@H](C(=O)O)[C@@H]1CC(Cl)=NO1 [acivicin]
catalytic activity of HPGGT after incubation with acivicin [1, 5]: completely abolishes | GGT activity of H. pylori wild-type supernatants after pretreatment with acivicin [1, 6]: abrogated; also recorded: completely repressed | inhibitory effect of the enzyme (HPGGT) towards lymphocytes after incubation with acivicin (human PBMC; [5]): completely abolishes | inhibition of PBMC proliferation by H. pylori wild-type supernatants after pretreatment with acivicin (human PBMC; [6]): abrogated; also recorded: completely repressed

CN[C@@H]1C[C@H]2O[C@@](C)([C@@H]1OC)n1c3ccccc3c3c4c(c5c6ccccc6n2c5c31)C(=O)NC4 [staurosporin, reference compound]
apoptosis (positive control) (Jurkat T cells [2]): strongly induced apoptosis

IQPDTVTPSSQIKPGM [peptide 356-371, peptide of HPGGT residues 356 to 371, far from the catalytic center]
inhibitory antibodies / inhibitory immune response against HPGGT in serum (HPGGT): No inhibitory immune response

B1: recombinant HPGGT: recombinant His-tagged gamma glutamyl transpeptidase of H. pylori expressed in E. coli (protein, listed as Helicobacter pylori)
chain: MRRSFLKTIGLGVIALFLGLLNPLSAASYPPIKNTKVGLALSSHPLASEIGQKVLEEGGNAIDAAVAIGFALAVVHPAAGNIGGGGFAVIHLANGENVALDFREKAPLKATKNMFLDKQGNVVPKLSEDGYLAAGVPGTVAGMEAMLKKYGTKKLSQLIDPAIKLAENGYAISQRQAETLKEARERFLKYSSSKKYFFKKGHLDYQEGDLFVQKDLAKTLNQIKTLGAKGFYQGQVAELIEKDMKKNGGIITKEDLASYNVKWRKPVVGSYRGYKIISMSPPSSGGTHLIQILNVMENADLSALGYGASKNIHIAAEAMRQAYADRSVYMGDADFVSVPVDKLINKAYAKKIFDTIQPDTVTPSSQIKPGMGQLHEGSNTTHYSVADRWGNAVSVTYTINASYGSAASIDGAGFLLNNEMDDFSIKPGNPNLYGLVGGDANAIEANKRPLSSMSPTIVLKNNKVFLVVGSPGGSRIITTVLQVISNVIDYNMNISEAVSAPRFHMQWLPDELRIEKFGMPADVKDNLTKMGYQIVTKPVMGDVNAIQVLPKTKGSVFYGSTDPRKEF
modifications: His-tag
notes: recombinant His-tagged gamma glutamyl transpeptidase of H. pylori expressed in E. coli
enzymatic GGT activity ([3]; pH 8.0, 37° C., 30 min): strong GGT activity | pH range of catalytic activity ([3]; pH of assay buffer varied between 2 and 10): 2-10 | inhibition of PBMC proliferation (human PBMC; PBMC stimulated with PMA/Ionomycin, 48 h): efficiently inhibited | inhibitory effect of HPGGT on lymphocyte proliferation in the absence of glutamine (human PBMC; medium without the amino acid glutamine): completely abolished | reduction of IL-2 secretion (IL-2): none of these treatments led to reduction | secretion of IFN-γ (IFN-γ): not reduced | Cyclin levels (Jurkat T cells [4]; 2 μg/ml): complete reduction | cellular levels and phosphorylation of AKT, p70S6k and Foxo 3 (PI3K-signaling) (Jurkat T cells [4]; Jurkat T cells and PBMC): not reduced | cellular levels of c-Myc and phosphorylation of c-Raf (Ras-dependent pathway) (Jurkat T cells [4]; Jurkat T cells and PBMC): reduced | cell cycle regulating proteins (Cyclin D3, E1) in PBMC (human PBMCs): even stronger reduction
